Measurements reported in US20230025707A1 (University of Pennsylvania, published 2023).

Legend:
[1] = target: T1, human α-Synuclein pre-formed fibrils (human, UniProt P37840 1-140); test: cell-based or functional assay
[2] = target: T1, human α-Synuclein pre-formed fibrils; test: sandwich ELISA; PFF vs monomer from EC50s, Syn211 as control
Experimental: Fibrils were then sonicated on high for 10 cycles of 30 seconds on, 30 seconds off (Diagenode Biorupter UCD-300 bath sonicator) prior to dilutions. Dilutions were added to each well (30 μL per well) and incubated overnight at 4° C. The plate was washed 4 times with PBST. 30 μL of MJF-R1 (1:3,000, Abcam Cat #ab138501) in Buffer C was added to each well and the plate was incubated for 4 hours at 37° C. After washing with PBST 4 times, 1:10 k diluted goat-anti-rabbit IgG-HRP conjugate (Cell Signaling Technology) was added to the plate and the plate was incubated for 1 hour at 37° C.
This assay retains the conformation of α-Synuclein by allowing binding of α-Synuclein that is in solution to immobilized antibody, and allows a broad range of affinity detection. Antibodies of interest were coated on an ELISA plate and either α-Synuclein monomer or PFF were incubated with the antibodies at increasing α-Synuclein concentrations to determine relative affinity of the antibodies for each form of α-Synuclein.
By fitting the absorbance values with a sigmoid dose curve, EC₅₀ values were calculated for each antibody.

Lewy body α-Synuclein = Lewy body α-Synuclein (human, UniProt P37840 1-140); test: IHC, human amygdala; OD of Lewy bodies / OD of tissue
Text: FIG. 2A: Sections of amygdala tissue containing abundant Lewy body pathology were stained using undiluted or 1:3 diluted hybridoma supernatant. […] FIG. 2B: The optical density within Lewy bodies divided by the optical density of a 1 mm² tissue section containing those Lewy bodies was defined as the Lewy Body Discrimination Index. Antibodies preferentially recognizing Lewy bodies score high on this measure.
In order to rapidly screen for antibody selectivity to pathological α-Synuclein, amygdala sections from PD patients with abundant LB pathology were immunostained. Hybridoma supernatants were used undiluted or at a 1:3 dilution on screening slides processed in parallel to allow direct comparison of immunostaining. […] A value of 1 indicates no discrimination of LBs over normal synaptic neuropil staining.

% Inhibition (primary neuron assay) [1]	PFF Preference [2]	LB Discrimination Index (Lewy body α-Synuclein)	Binder
90.3%	1.31	1.68	9005 (antibody, IgG1, V domains shown) VH: EVMLVESGGGLVKSGGSLKLSCAASGFTFSSYAMSWVRQTPEKRLEWVATISTGGGYTYYPDSVKGRFTISRDNAKNTLYLQMSSLRSEDTAMYYCVRRGTARGYFDVWGAGTTVTVSS VL: QIVLTQSPAIMSASPGEKVTMTCSASSSVSYMYWYQQKPESSPRLLIYDTSNLASGVPVRFSGSGSGTSYFLTISRMEAEDAATYYCQQWKTYPPTFGGGTKLEIK
86.5%	1.45	1.78	9018 (antibody, IgG2b, V domains shown) VH: EVMLVESGGGLVKPGGSLKLSCAASGFTFSSYAMSWVRQTPEKRLEWVATISTGGGYTYYPDSVKGRFTVSRDNAKNTLYLQMSSLRSEDTAMYYCARRGTSRGYFDVWGAGTTVTVSS VL: QIILTQSPAIMSASPGEKVTMTCSASSSVSYMYWYQQKPESSPRLLIYDTSNLASGVPVRFSGSGSGTSYFLTISRMEAEDAATYYCQQWKTYPPTFGGGTRLEIK
84.7%	1	1.81	9021 (antibody, IgG1, V domains shown) VH: EVMMVESGGGLVKPGGSLKLSCAASGFTFSNYAMSWVRQTPEKRLEWVATISTGGGYTYYPDSMKGRFTISRDNAKNTLYLQMSSLRSEDTAMYYCARRGTARGYFDVWGAGTTVTVSS VL: QIVLTQSPAIMSASPGEKVTMTCSASSSVSYMYWYQQKPESSPRLLIYDTSNLASGVPVRFSGSGSGTSYFLTISRMEAEDAATYYCQQWKTYPPTFGGGTKLEIK
84.3%	1.47	1.74	9052 (antibody, IgG2b, V domains shown) VH: EVQLVESGGVLVKPGGSLKLSCAASGFTFSSFAMSWVRQTPEKRLEWVATISNGGSYTYYPDSVKGRFTISRDNAKNTLYLRMSSLRSEDTAMYYCVRRATTRGYFDYWGQGTTLTVSS VL: QIFLTQSPAIMSASPGEKVTMTCSASSSVSYMYWYQQKPGSSPRLLIYDSSKLASGVPVQFSGSGSGTSYSLTISRMEAEDAATYYCQQWRSYPPTFGAGTKLELK
79%	2.11e+08	1.9	9035 (antibody, IgG2b, V domains shown) VH: EVQLVESGGGLVKPGGSLKLSCGASGFTFSSFAMSWVRQTPEKRLEWVATISNGGSYTYYPDSVQGRFTISRDNAKNTLYLRMSSLRSEDTAMYYCARRSSTRGFFDYWGHGTTLTVSS VL: QIFLTQSPAIMSASPGEKVTMTCSASSSVSYMYWYQQKPGSSPRLLIYDSSKLASGVPVQFSGSGSGTSYSLTISRMEAEDAATYYCQQWRSYPPTFGAGTKLELK
85.1%	1.01	1.3	9096 (antibody, IgG2b, V domains shown) VH: EVQLVESGGGLVKPGGSLKLSCAASGFTFSGYAMSWVRQTPEKRLEWVATISNGGSYTYYPDSVKGRFTISRDNAKKTLYLQMSSLRSEDTAMYYCTRRAATRGYFDYWGQGTTLTVSS VL: QIVLTQSPAIMSASPGEKVTMTCSASSSVSYMYWYQQKPGSSPRLLIYDTSKLASGVPVRFSGSGSGTSYSLTISRMEAEDAATYYCQQWRSYPPTFGAGTKLELK
84.3%	133	2.46	9047 (antibody, IgG2b, V domains shown) VH: EVQLVESGGGLVKPGGSLKLSCGASGFTFSSFAMSWVRQTPEKRLEWVATISNGGSYTYYPDSVKGRFTISRDNAKNTLYLRMSSLRSEDTALYYCTRRSSTRGFFDYWGPGTTLTVSS VL: QIFLTQSPAIMSASPGEKVTMTCSASSSVTYMYWYQQNPGSSPRLLIYDSSKLASGVPVRFSGSGSGTSYSLTISRMEAEDATTYYCQQWKSYPPTFGTGTKLDLK
83.8%	0.73	1.92	9060 (antibody, IgG1, V domains shown) VH: EVHLVESGGGLVQPKGSLKLSCAASGFTFNTYAMHWVRQAPGKGLEWVARIRNKSNNYATYYADSVKDRFTISRDDSQSMLFLQMDNLKTEDTAIYYCVRGGLSPFDYWGQGTTLTVSS VL: QIVLTQSPAIMSASPGEKVTMTCSASSSVTYMHWYQQKSGTSPKRWIYDTSKLASGVPARFSGSGSGTSYSLTISSMEAEDAATYYCQQWSSNPPTFGGGTKLEIR
82%	0.565	1.94	9003 (antibody, IgG1, V domains shown) VH: EVQLVESGGGLVQPKGSLKLSCAASGFTFNTYAMHWVRQAPGKGLEWVARIRSESNNFATYYADSVKDSFTISRDDSQSMLYLQMNNLKTEDTAVYYCVRGGLSPFDYWGQGTTLTVSS VL: QIVLTQSPAIMSASPGEKVTMTCSASSSVSYMHWYQQKSGTSPKRWIYDTSKLASGVPARFSGSGSGTSYSLTINSMEAEDAATYYCQQWSRNPPTFGGGTKLEIK
62.7%	1.02	1.91	9004 (antibody, IgG2b, V domains shown) VH: EVHLVESGGGLVQPKGSLKLSCAASGFTFNTYAMHWVRQAPGKGLEWVARIRSKSNNYATYYADSVKDRFTISRDDSQSMLYLQMNNLKTEDTAMYYCVRGGLSPFDYWGQGTTLTVSS VL: QIVLTQSPAIMSASPGEKVTMTCSASSSVTYMHWYQQKSGTSPKRWIYDTSKLASGVPARFSGSGSGTSYSLTISSMEAEDAATYYCQQWSSNPPTFGGGTKLEIR
81%	0.507	1.82	9009 (antibody, IgG1, V domains shown) VH: EVQLVESGGGLVQPKGSLKLSCAASGFTFNTYAMHWVRQAPGKGLEWVARIRSESNNFATYYADSVKDSFTISRDDSQSMLYLQMNNLKTEDTAVYYCVRGGLSPFDYWGQGTTLTVSS VL: QIVLTQSPAIMSASPGEKVTMTCSASSSVSYMHWYQQKSGTSPKRWIYDTSKLASGVPARFSGSGSGTSYSLTINSMEAEDAATYYCQQWSRNPPTFGGGTKLEIK
81.7%	0.478	1.87	9014 (antibody, IgG1, V domains shown) VH: EVQLVESGGGLVQPKGSLKLSCAASGFTFNTYAMHWVRQAPGKGLEWVARIRSESNNFATYYADSVKDSFTISRDDSQSMLYLQMNNLKTEDTAVYYCVRGGLSPFDYWGQGTTLTVSS VL: QIVLTQSPAIMSASPGEKVTMTCSASSSVSYMHWYQQKSGTSPKRWIYDTSKLASGVPARFSGSGSGTSYSLTINSMEAEDAATYYCQQWSRNPPTFGGGTKLEIK
88.1%	0.855	1.95	9064 (antibody, IgG1, V domains shown) VH: EVHLVESGGGLVQPKGSLKLSCAASGFTFNTYAMHWVRQAPGKGLEWVARIRNKSNNYATYYADSVKDRFTISRDDSQSMLFLQMDNLKTEDTAIYYCVRGGLSPFDYWGQGTTLTVSS VL: QIVLTQSPAIMSASPGEKVTMTCSASSSVTYMHWYQQKSGTSPKRWIYDTSKLASGVPARFSGSGSGTSYSLTISSMEAEDAATYYCQQWSSNPPTFGGGTKLEIR
79.3%	0.605	1.89	9071 (antibody, IgG1, V domains shown) VH: EVHLVESGGGLVQPKGSLKLSCAASGFTFNTYAMHWVRQAPGKGLEWVARIRNKSNNYATYYADSVKDRFTISRDDSQSMLFLQMDNLKTEDTAIYYCVRGGLSPFDYWGQGTTLTVSS VL: QIVLTQSPAIMSASPGEKVTMTCSASSSVTYMHWYQQKSGTSPKRWIYDTSKLASGVPARFSGSGSGTSYSLTISSMEAEDAATYYCQQWSSNPPTFGGGTKLEIR
-27.9%	93.8	1.9	9092 (antibody, IgG1, V domains shown) VH: QVQLQQSGPELVKPGASVRISCKASGYTFTTFYLHWVKQRPGQGLEWIGWIYPVNVKIKYSERFKGKATLTADKSSSTAYMQLGSLTSEDSAVYFCVRGGRGLDYWGQGTTLTVSS VL: NIMMTQSPSSLAVSAGEKVTMSCKSSQSVLYSSNQKNYLAWYQQKPGQSPKMLIYWASFRESGVPDRFTGSGSGTDFTLTISSVQAEDLAVYYCHQYLSLFTFGSGTKLEIK
85.3%	5.26	1.47	9099 (antibody, IgG2b, V domains shown) VH: EVQLVESGGVLVKPGGSLKLSCAASGFTFSSFAMSWVRQTPEKRLEWVATISNGGSYTYYPDSVKGRFTISRDNAKNTLYLRMSSLRSEDTAMYYCVRRATTRGYFDYWGQGTTLTVSS VL: QIFLTQSPAIMSASPGEKVTMTCSASSSVSYMYWYQQKPGSSPRLLIYDSSKLASGVPVQFSGSGSGTSYSLTISRMEAEDAATYYCQQWRSYPPTFGAGTKLELK
91.3%	2.73	1.62	9100 (antibody, IgG2b, V domains shown) VH: EVQLVESGGVLVKPGGSLKLSCAASGFTFSSFAMSWVRQTPEKRLEWVATISNGGSYTYYPDSVKGRFTISRDNAKNTLYLRMSSLRSEDTAMYYCVRRATTRGYFDYWGQGTTLTVSS VL: QIFLTQSPAIMSASPGEKVTMTCSASSSVSYMYWYQQKPGSSPRLLIYDSSKLASGVPVQFSGSGSGTSYSLTISRMEAEDAATYYCQQWRSYPPTFGAGTKLELK
81.6%	0.533	1.73	9110 (antibody, IgG1, V domains shown) VH: EVHLVESGGGLVQPKGSLKLSCAASGFTFNTYAMHWVRQAPGKGLEWVARIRNKSNNYATYYADSVKDRFTISRDDSQSMLFLQMDNLKTEDTAIYYCVRGGLSPFDYWGQGTTLTVSS VL: QIVLTQSPAIMSASPGEKVTMTCSASSSVTYMHWYQQKSGTSPKRWIYDTSKLASGVPARFSGSGSGTSYSLTISSMEAEDAATYYCQQWSSNPPTFGGGTKLEIR
